Entries after “also recorded” stand apart in the source; their conditions may differ.

As usually defined, the Kd is the free concentration of one partner at which half of the binding sites on the other are occupied at equilibrium, for simple one-to-one binding.

The target in test [1] is T1, TRIM66-GSGS968-1160 (Homo sapiens, UniProt O15016, A1173S/DEL1165-1171/P1175S/R1172G/S1174G).
T1 construct: We created a mutant protein (termed TRIM66-GSGS968-1160;); GST (N, cleaved yes); made in house; host or cells: Escherichia coli BL21 (DE3)
T1 sequence (O15016 with tags, fused parts or gaps DEL1165-1171/R1172G/A1173S/S1174G/P1175S): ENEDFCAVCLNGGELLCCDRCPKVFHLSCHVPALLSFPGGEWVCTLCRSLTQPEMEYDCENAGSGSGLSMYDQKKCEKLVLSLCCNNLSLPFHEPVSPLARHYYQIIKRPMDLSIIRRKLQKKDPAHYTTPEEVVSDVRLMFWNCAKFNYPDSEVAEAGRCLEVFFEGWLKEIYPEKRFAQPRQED
In words: ITC, NMR mutant protein. The test is classed as binding. Conditions: 25 °C, 20 mM Tris, 100 mM NaCl, pH 7.5, single measurement. The method, then: To investigate the interaction between the H3K56ac peptide and the TRIM66 PHD-Bromodomain, we performed a nuclear magnetic resonance (NMR) titration experiment. We created a mutant protein (termed TRIM66-GSGS968-1160; Supplementary Fig. 1e, Supplementary Fig. 7a, b, Supplementary Table 1, and Supplementary Note 2).
The calorimetric experiments were performed at 25 °C using a MicroCal PEAQ-ITC. The proteins were dialyzed using a buffer containing 20 mM Tris and 100 mM NaCl at pH 7.5. Lyophilized peptides were dissolved in the same buffer and adjusted to pH 7.5 prior to use. Peptide concentrations were estimated from the quantitative NMR experiments[73],[74]. ITC measurements were performed via injection of 0.7–4 mM peptide into a cell containing 0.12 mM TRIM24-PHD-Bromo, 0.05 mM TRIM33 PHD-Bromo, and 0.05 or 0.11–0.15 mM TRIM66-PHD-Bromo (or its mutants). The ITC data were subsequently analyzed using the MicroCal PEAQ-ITC analysis software. […]
protein (TRIM66-WT965-1160) in all the ITC and GST pull down interaction assays. Meanwhile, the […]
experiments and crystal experiment, respectively. […]
combinational manner (Fig. 1d). To further figure out the binding mode between the TRIM66 PHD-Bromodomain and the united H3(1-15)-(48-57) K56ac peptide, we performed a NMR titration experiment and carefully analyzed the linewidth changes of TRIM66 -GSGS968-1160 (this protein is […]
In general terms: Isothermal titration calorimetry measures the heat released or taken up as one component is titrated into another.

For test [2], the target named is T2, TRIM66-WT965-1160 (Homo sapiens, UniProt O15016).
T2 construct: ITC titration: titrating TRIM66-WT965-1160 with various histone H3 peptides; GST (N, cleaved yes); made in house; host or cells: Escherichia coli BL21 (DE3)
T2 sequence (O15016 1100-1295): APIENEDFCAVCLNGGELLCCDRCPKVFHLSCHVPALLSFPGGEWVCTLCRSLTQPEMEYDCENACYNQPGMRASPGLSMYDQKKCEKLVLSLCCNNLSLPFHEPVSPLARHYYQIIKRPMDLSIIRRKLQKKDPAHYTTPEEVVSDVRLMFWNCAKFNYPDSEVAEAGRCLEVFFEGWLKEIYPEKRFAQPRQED
In words: ITC, PHD-Bromodomain wild type. The test is classed as binding. Conditions: ITC, 25 °C, pH 7.5. An excerpt: We next performed the glutathione S-transferase (GST) pulldown assays of the TRIM66-WT965-1160 against the calf thymus histones to verify the histone-binding ability of TRIM66 PHD-Bromodomain. […] The PHD of TRIM66 shared a low conservation with those of ING4, PHF2, and BPTF, and lacked the conserved aromatic residues, which were necessary for binding H3K4me2/3[40]–[42] (Supplementary Fig. 2b). Nevertheless, TRIM66 was highly conserved in sequence and structure with the PHDs of TRIM24 and TRIM33 (Fig. 1c and Supplementary Fig. 2b), which were reported to bind H3K4me0[5],[6]; thus, we speculated that the PHD of TRIM66 could bind H3K4me0. To verify this hypothesis, we performed isothermal titration calorimetry (ITC)-based binding assays. […] Based on previous researches reporting the acetyl-lysine binding partners of Bromodomain[3]–[12], we chose a series of related peptides derived from H3 and H4, to test their interactions with TRIM66-WT965-1160 by ITC experiments. […] We further found the acetylated state of K56 was necessary for this binding (Supplementary Fig. 3b).
We next titrated the TRIM66-WT965-1160 with a series of R2-methylated H3 peptides through ITC assays. […] This finding was consistent with the structural observation that each NηH atom of the R2 formed a hydrogen bond with residues in protein (Fig. 2d).
The DNA fragments of human TRIM66_968-1160, TRIM24_824-1006, and TRIM33_882-1087 were amplified from a human bone marrow cDNA library using a PCR-based cloning strategy. The fragments of TRIM66-WT968-1160 were inserted into a pGEX-4T-1 plasmid (GE Healthcare). The fragments of TRIM24_824-1006 and TRIM33_882-1087 were ligated into a pET-SUMO-28a (+) plasmid (Novagen). The DNA fragments of TRIM66-MUT968-1160 and TRIM66-WT965-1160 with codon optimization were synthesized by General Biosystems (sequence was shown in Supplementary Methods) and inserted into a pGEXT-4T-1 plasmid (GE Healthcare). Mutants of TRIM66 PHD-Bromo were generated through PCR using the Mutant Best kit (Takara). The mutation of point mutant based on the codon-optimized DNA sequence of TRIM66-WT965-1160. All constructs were expressed in Escherichia coli BL21 (DE3). The construct of ASF1a1-156 inserted into a pRSFDuet plasmid (courtesy of Ruiming Xu Lab, Institute of Biophysics, Chinese Academy of Sciences) was expressed in E. coli BL21 (DE3) RIL. The construct of full-length H4 inserted into a pET3a plasmid was expressed in E. coli BL21 (DE3). The expression of full-length histone H3K56ac was performed in BL21 (DE3) cells transformed with pBK-AxcKRS3 and pET22b encoding H3 with amber codons at the K56 site[12]. The DNA fragment of full-length TRIM66 was synthesized by General Biosystems and ligated into fugw vector (Addgene). See the information of protein sequence in Supplementary Table 1.
The calorimetric experiments were performed at 25 °C using a MicroCal PEAQ-ITC. The proteins were dialyzed using a buffer containing 20 mM Tris and 100 mM NaCl at pH 7.5. Lyophilized peptides were dissolved in the same buffer and adjusted to pH 7.5 prior to use. Peptide concentrations were estimated from the quantitative NMR experiments[73],[74]. ITC measurements were performed via injection of 0.7–4 mM peptide into a cell containing 0.12 mM TRIM24-PHD-Bromo, 0.05 mM TRIM33 PHD-Bromo, and 0.05 or 0.11–0.15 mM TRIM66-PHD-Bromo (or its mutants). The ITC data were subsequently analyzed using the MicroCal PEAQ-ITC analysis software.

The target of test [3] is T3, TRIM24_824-1006 (Homo sapiens, UniProt O15164).
T3 construct: The fragments of TRIM24_824-1006 and TRIM33_882-1087 were ligated into a pET-SUMO-28a (+) plasmid; His-SUMO (N, cleaved yes); made in house; host or cells: Escherichia coli BL21 (DE3)
T3 sequence (O15164 824-1006): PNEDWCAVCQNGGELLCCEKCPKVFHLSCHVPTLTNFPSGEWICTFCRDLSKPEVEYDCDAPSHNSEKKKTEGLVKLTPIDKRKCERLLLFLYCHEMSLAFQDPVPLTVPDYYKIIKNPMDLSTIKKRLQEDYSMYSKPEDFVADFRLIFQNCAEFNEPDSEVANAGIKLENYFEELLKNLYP
In words: ITC, PHD-Bromodomain. The note with it: 25 °C, 20 mM Tris, 100 mM NaCl, pH 7.5, single measurement, error from curve fit, Weak binding = ITC curves cannot be fitted reliably. An excerpt: (§1) We subsequently compared the complex structure of TRIM24, TRIM33, and TRIM66 with H3 peptide. […] (Fig. 2d). […] However, they were sensitive to H3R2me2s (Table 2, Supplementary Fig. 5b, c, and Supplementary Table 2).
(§2) The DNA fragments of human TRIM66_968-1160, TRIM24_824-1006, and TRIM33_882-1087 were amplified from a human bone marrow cDNA library using a PCR-based cloning strategy. The fragments of TRIM66-WT968-1160 were inserted into a pGEX-4T-1 plasmid (GE Healthcare). The fragments of TRIM24_824-1006 and TRIM33_882-1087 were ligated into a pET-SUMO-28a (+) plasmid (Novagen). The DNA fragments of TRIM66-MUT968-1160 and TRIM66-WT965-1160 with codon optimization were synthesized by General Biosystems (sequence was shown in Supplementary Methods) and inserted into a pGEXT-4T-1 plasmid (GE Healthcare). Mutants of TRIM66 PHD-Bromo were generated through PCR using the Mutant Best kit (Takara). The mutation of point mutant based on the codon-optimized DNA sequence of TRIM66-WT965-1160. All constructs were expressed in Escherichia coli BL21 (DE3). […]
(§3) The calorimetric experiments were performed at 25 °C using a MicroCal PEAQ-ITC. […] Peptide concentrations were estimated from the quantitative NMR experiments[73],[74]. […] The ITC data were subsequently analyzed using the MicroCal PEAQ-ITC analysis software.

Test [4] concerns the target T4, TRIM33_882-1087 (Homo sapiens, UniProt Q9UPN9).
T4 construct: The fragments of TRIM24_824-1006 and TRIM33_882-1087 were ligated into a pET-SUMO-28a (+) plasmid; His-SUMO (N, cleaved yes); made in house; host or cells: Escherichia coli BL21 (DE3)
T4 sequence (Q9UPN9 882-1087): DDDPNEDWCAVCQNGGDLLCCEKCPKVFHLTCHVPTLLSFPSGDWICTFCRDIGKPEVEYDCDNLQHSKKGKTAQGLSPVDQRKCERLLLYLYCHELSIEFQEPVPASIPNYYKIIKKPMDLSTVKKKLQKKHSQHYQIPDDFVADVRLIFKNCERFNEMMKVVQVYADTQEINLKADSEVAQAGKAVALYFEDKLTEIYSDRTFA
In words: ITC, PHD-Bromodomain. The note with it: 25 °C, 20 mM Tris, 100 mM NaCl, pH 7.5, single measurement, error from curve fit, Weak binding = ITC curves cannot be fitted reliably.
Source text: as §1, §2, §3

Setting [5] is: MicroCal PEAQ-ITC, 20 mM Tris, 100 mM NaCl, single measurement, error from curve fit, Weak binding = ITC curves cannot be fitted reliably, N.D. = no detectable binding.

Turning to `CC[C@H](C)[C@H](NC(=O)[C@H](CCC(=O)O)NC(=O)[C@H](CCCNC(=N)N)NC(=O)[C@@H](N)CC(C)C)C(=O)N[C@@H](CCCNC(=N)N)C(=O)N[C@@H](CCCNC(=N)N)C(=O)N[C@@H](Cc1ccc(O)cc1)C(=O)N[C@@H](CCC(N)=O)C(=O)N[C@@H](CCCCNC(C)=O)C(=O)N[C@@H](CO)C(=O)O` [H3_48-57K56ac], the Kd in test [1] is 127 ± 9.53 µM; in test [2] (setting [5]), 109 µM.
On to “H3R2me2s: symmetrically dimethylated H3R2 peptide”, for which the “binding (in words)” value in test [2] is given as “obvious reduction in their binding affinities”. The results for the KD result in test [2] (setting [5]), in test [3] and in test [4] were “Weak binding; also recorded: ^aWeak binding”, “Weak binding” and “Weak binding”, respectively.

Source of the values: PMC6753139, “TRIM66 reads unmodified H3R2K4 and H3K56ac to respond to DNA damage in embryonic stem cells” (Nature Communications, 2019).
